Experimental findings from publication PMC4861126 are described below.

This assay has as its target Rap1 preloaded with mGppNHp (GDI assay) (Dictyostelium) (UniProt P18613). Description: GDI (guanine nucleotide dissociation inhibition) assay, fluorescence; mGppNHp labelled G-protein with indicated amounts of RA-TalB, 200 fold excess of GppNHp, 25 °C; 50 mM Tris-HCl pH 7.5, 5 mM MgCl2, 50 mM NaCl, 5 mM DTE; Kd from dependence of kobs on RA-TalB concentration.
Chain of UniProt P18613 (P18613 whole entry): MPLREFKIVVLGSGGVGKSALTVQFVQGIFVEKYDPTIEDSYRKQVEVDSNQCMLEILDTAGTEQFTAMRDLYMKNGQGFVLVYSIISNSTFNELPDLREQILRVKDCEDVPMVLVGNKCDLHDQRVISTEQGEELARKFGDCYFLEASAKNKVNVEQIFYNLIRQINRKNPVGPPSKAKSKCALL

B1: Dictyostelium RA-TalB domain (residues 1-122) (domain or fragment)
chain: MSLTLKIQIVRDKQVKAMKFSPTQTVAEVCAQVREKINETSGDDHGLFQPGIDAKRPSRWLKMDKTLQFYDLKINDELDYKKKHRPLKVRLMDETVKTMLVDDSLTAGEILEIIGKRIGIKN
As usually defined, the Kd is the concentration at which binding is half-saturated. In the case of B1, the dissociation constant Kd is 19.9 µM.
